Measured values from article PMC3447985.

Experiments:
Experiment in all cases: SEC
[1] = target: Human apolipoprotein E4 W264C (human) (UniProt P02649)
[2] = target: Human apolipoprotein E4 S290C (human) (UniProt P02649)
[3] = target: Human apolipoprotein E4 S94C (human) (UniProt P02649)

Question: For “Human apolipoprotein E4 W264C (from UniProt P02649 19-317) (natural protein)”, which stoichiometry N [1] is on record?
Answer: 4

Question: “Human apolipoprotein E4 S290C (from UniProt P02649 19-317) (natural protein)” was tested. Which stoichiometry N [2] did it give?
Answer: 4

Question: With “Human apolipoprotein E4 S94C (from UniProt P02649 19-317) (natural protein)” as the substance, how does the stoichiometry N [3] read?
Answer: 4
